No end group written: not given here.
Experiments:
[1] = molecular target: T1, IL-17A (agonist in the IL-17RA/IL17RC dimerization assay) (UniProt Q16552 24-155); test: cell-based or functional assay
[2] = molecular target: T1, IL-17A (agonist in the IL-17RA/IL17RC …); test: cell-based or functional assay; remark: listed apart in the source

T1 sequence (Q16552 24-155 limits assumed): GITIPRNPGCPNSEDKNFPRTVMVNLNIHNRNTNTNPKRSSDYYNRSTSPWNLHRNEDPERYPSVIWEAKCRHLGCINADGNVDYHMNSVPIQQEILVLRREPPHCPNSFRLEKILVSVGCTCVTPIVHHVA

Binder | IC50 in IL-17RA/IL7RC dimerization assay [1] | IC50, % inhibition of IL-17A-induced IL-17RA/IL17RC dimerization (PathHunter cytokine receptor assay) [2]
Ac-IHVTIPADLWDWIRK-NH2 [peptide of SEQ ID NO: 9] | < 300 nM | –
IMVTIPADLYEWIEEQ-{N‑acetylglucosamine} [BIO-2] | < 1000 nM | –
{ascorbic acid}-IMVTIPADLYEWIEE [BIO-5] | < 1000 nM | –
Ac-IHVTIPADLYEWINK-NH2 (not fully specified) [peptide of SEQ ID NO: 7] | – | 103 nM
Ac-LHVTIPADLWDWINK-NH2 [peptide of SEQ ID NO: 160] | < 10000 nM | –
Ac-VPGAGVPGAGIHVTI-NH2 [peptide of SEQ ID NO: 156] | < 500 nM | –
{N‑acetylglucosamine-N‑acetylmuramic acid}-IMVTIPADLYEWIEE [BIO-3] | < 1000 nM | –
Ac-GHVTIPADLWDWINK-NH2 [peptide of SEQ ID NO: 159] | < 10000 nM | –
Ac-VHFQFPQDLWEWVRR-NH2 [peptide of SEQ ID NO: 150] | < 500 nM | –
Ac-VPGAGVPGAGIHVTIPA-NH2 [peptide of SEQ ID NO: 157] | < 500 nM | –
Ac-VHFTIPQDLYNWRR-NH2 [peptide of SEQ ID NO: 151] | < 500 nM | –
Ac-VHFQFPQDWWEWFRR-NH2 [peptide of SEQ ID NO: 141] | < 500 nM | –
Ac-IKVTIPADLWDWINK-NH2 [peptide of SEQ ID NO: 163] | < 10000 nM | –
Ac-VHFQIPQDWWEWVRR-NH2 [peptide of SEQ ID NO: 137] | < 500 nM | –
Ac-VHVTFPADLWEWFRR-NH2 [peptide of SEQ ID NO: 144] | < 500 nM | –
Ac-IRVTIPADLWDWINK-NH2 [peptide of SEQ ID NO: 162] | < 10000 nM | –
Ac-IHVTIPADLWDWVRR-NH2 [peptide of SEQ ID NO: 14] | < 400 nM | 380 nM
Ac-VHFTIPADFWEWFRR-NH2 [peptide of SEQ ID NO: 142] | < 500 nM | –
Ac-VRFQFGQEWYNFFRR-NH2 [peptide of SEQ ID NO: 155] | < 500 nM | –
Ac-VHFQIPQDLYNFFRR-NH2 [peptide of SEQ ID NO: 153] | < 500 nM | –

Binder | IC50 in IL-17RA/IL7RC dimerization assay [1] | IC50, % inhibition of IL-17A-induced IL-17RA/IL17RC dimerization (PathHunter cytokine receptor assay) [2]
Ac-VHFQFPQEWYNWFRR-NH2 [peptide of SEQ ID NO: 154] | < 500 nM | –
Ac-VHVTIPADLYNFFRR-NH2 [peptide of SEQ ID NO: 149] | < 500 nM | –
Ac-VHFQFPADLWEWFRR-NH2 [peptide of SEQ ID NO: 135] | < 500 nM | –
Ac-PHVTIPADLWDWINK-NH2 [peptide of SEQ ID NO: 161] | < 10000 nM | –
Ac-VHFTIPADLYNFVRR-NH2 [peptide of SEQ ID NO: 152] | < 500 nM | –
Ac-VHFTIPQDWWEWVRR-NH2 [peptide of SEQ ID NO: 146] | < 500 nM | –
Ac-VHFQFPQDLWEFVRR-NH2 [peptide of SEQ ID NO: 140] | < 500 nM | –
Ac-VHVQIPADFWEWFRR-NH2 [peptide of SEQ ID NO: 143] | < 500 nM | –
Ac-VHVTIPQDFWEWFRR-NH2 [peptide of SEQ ID NO: 145] | < 500 nM | –
Ac-VHFQFPADLWEFVRR-NH2 [peptide of SEQ ID NO: 134] | < 500 nM | –
Ac-VHFTFPQDLYNWVRR-NH2 [peptide of SEQ ID NO: 147] | < 500 nM | –
Ac-IHVTIPADLWDWINR-NH2 [peptide of SEQ ID NO: 10] | < 400 nM | 263 nM
Ac-VHFQFPQDWWNWVRR-NH2 [peptide of SEQ ID NO: 139] | < 500 nM | –
Ac-AHVTIPADLWDWINK-NH2 [peptide of SEQ ID NO: 158] | < 10000 nM | –
Ac-IHVTIPADLWDWINE-NH2 [peptide of SEQ ID NO: 12] | < 200 nM | 118 nM
Ac-VHFTFPQDLYNFVRR-NH2 [peptide of SEQ ID NO: 148] | < 500 nM | –
{capric acid}-IMVTIPADLYEWIEE [BIO-4] | < 1000 nM | –
Ac-VMVTIPADLYEWIEEVPGAGVPGAG-NH2 [peptide of SEQ ID NO: 37] | < 200 nM | 188 nM
{N‑acetylmuramic acid}-IMVTIPADLYEWIEE [BIO-1] | < 1000 nM | –

— patent US20220112244A1 (DOMPE FARMACEUTICI S P A, published 2022)
